Results as given in PMC11133340.

Biological target: PSII-ACPII monomer (one PSII core monomer with six ACPII subunits and CCPII-S) (Chroomonas placoidea (endogenous in C. placoidea T11))
Assay: cryo-EM structure; single-particle cryo-EM of the native PSII-ACPII supercomplex co-purified from C. placoidea thylakoids; 25 mM Hepes-KOH pH 7.5, 1 mM CaCl2, 0.012% α-DDM; C2 symmetry, 2.47 Å overall; local refinement of the peripheral ACPIIs to 2.84 Å

Substance: PSII-ACPII monomer (one PSII core monomer with six ACPII subunits and CCPII-S) (from UniProt A0A222AI37 1-351; A0A222AIE3 1-509; A0A222AI36 1-461; A0A222AI74 1-84; A0A222AI51 1-42; A0A222AIE4 1-67; A0A222AI80 1-38; A0A222AI54 1-39; A0A222AIA0 1-45; A0A222AI58 1-38; A0A222AID2 1-32; A0A222AI61 1-39; A0A222AI96 1-62; A0A222AI35 1-163) (complex)
- stoichiometry N: 2
